Experimental data taken from patent publication US20260263521A1 (AIMED BIO, published 2026).
Values belong to the binder of their own block, whether it stands above or below them.

Legend:
[1] = molecular target: T1, human CD200R1 expressed on cells (Jurkat-CD200R1, U937-CD200R1, HH cells) (human, UniProt Q8TD46 25-348); experiment: cell-based or functional assay
T1 sequence (looked up): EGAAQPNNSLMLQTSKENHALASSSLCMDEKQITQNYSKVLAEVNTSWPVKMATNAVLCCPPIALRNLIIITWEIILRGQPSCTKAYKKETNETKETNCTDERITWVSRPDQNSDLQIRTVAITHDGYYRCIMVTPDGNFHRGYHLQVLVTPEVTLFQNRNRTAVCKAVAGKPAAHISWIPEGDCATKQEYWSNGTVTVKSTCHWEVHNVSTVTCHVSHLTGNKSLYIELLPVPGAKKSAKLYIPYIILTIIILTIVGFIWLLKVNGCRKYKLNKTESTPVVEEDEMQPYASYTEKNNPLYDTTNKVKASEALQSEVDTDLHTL

[2] = molecular target: T1, human CD200R1 expressed on cells …; experiment: cell-based or functional assay; remark: listed apart in the source
[3] = molecular target: T1, human CD200R1 expressed on cells …; experiment: flow cytometry, HH cells
Experimental: (§1) Two additional wells were treated with 10 μl of mouse IgG1K (BD, #555751) and 5 μl of commercial CD200R1 antibody (Biolegend, #329308) to determine CD200R1 expression on the cell line surface for cell quality control.
(§2) The antibodies were serially diluted 10-fold from a maximum concentration of 100 nM to 10 nM, 1 nM, […], and were added to the pre-seeded cells. After reaction for 1 hour at 4° C., the cells were treated with Alexa-647 goat anti-human IgG (H+L) cross-adsorbed secondary antibody (Invitrogen, #A21445) and incubated for an additional 30 minutes at 4° C. After washing twice with FACS buffer, flow cytometry was performed using a Novocyte Flow cytometer (Agilent). Using GraphPad Prism software, the EC₅₀ was determined using a nonlinear graph model of log (agonist) vs. response-variable slope, as shown in Table 32.

[4] = molecular target: T1, human CD200R1 expressed on cells …; experiment: flow cytometry, U937-CD200R cells
Experimental: as §1, §2

[5] = molecular target: T1, human CD200R1 expressed on cells …; experiment: flow cytometry, Jurkat-CD200R cells
Experimental: as §1, §2

[6] = molecular target: T2, human CD200R1 recombinant protein (construct not stated) (human, UniProt Q8TD46 27-266, limits assumed); experiment: ELISA on human CD200R1, normalized absorbance at 450 nm, 0.0192-300 nM; panel 'Human CD200R1'
T2 sequence (looked up): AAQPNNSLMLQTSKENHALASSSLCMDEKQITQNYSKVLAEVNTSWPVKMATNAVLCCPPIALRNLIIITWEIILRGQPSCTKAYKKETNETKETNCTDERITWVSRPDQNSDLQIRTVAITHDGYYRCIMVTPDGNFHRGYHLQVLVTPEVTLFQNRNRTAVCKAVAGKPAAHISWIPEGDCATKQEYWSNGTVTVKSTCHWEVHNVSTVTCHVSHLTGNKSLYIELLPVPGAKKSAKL

[7] = molecular target: T3, human CD200R1 with dual His-tags (human, UniProt Q8TD46 25-265); experiment: SPR (Biacore CM5), His-tagged antigen captured by anti-histidine antibody, antibody as analyte, 1:1 Langmuir fit
T3 construct: Captured on the SPR chip by an anti-histidine antibody; also called hCD200R1-his; not shown: dual His-tags
T3 sequence (looked up): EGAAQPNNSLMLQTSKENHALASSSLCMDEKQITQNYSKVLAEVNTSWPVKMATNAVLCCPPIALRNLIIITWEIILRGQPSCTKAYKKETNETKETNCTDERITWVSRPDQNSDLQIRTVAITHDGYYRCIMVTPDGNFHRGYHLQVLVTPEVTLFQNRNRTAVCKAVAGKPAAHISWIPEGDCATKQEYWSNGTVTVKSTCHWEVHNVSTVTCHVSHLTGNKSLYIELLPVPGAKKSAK
Experimental: (§3) For the experiment, 30 μg/mL of an anti-histidine antibody was conjugated to a CM5 biacore chip via an amine bond while allowing to flow at 10 μl/min (10,000 RU). Then, 0.25 μg/mL of human or cynomolgus CD200R1 with dual His-tags was captured onto the completed chip for 60 seconds, and the binding ability of each antibody was analyzed. All experiments were performed by association of antibodies for 120 seconds and dissociation of antibodies for 600 seconds. The resulting graphs were fitted using a 1:1 Langmuir binding kinetic model (FIG. 16), and the kinetics of each antibody were calculated.

[8] = molecular target: T4, cynomolgus CD200R1 with dual His-tags (cynomolgus, UniProt G7NZT0 25-266); experiment: as above
T4 construct: Captured on the SPR chip by an anti-histidine antibody; also called CCD200R1-his; cCD200R1-his; not shown: dual His-tags
T4 sequence: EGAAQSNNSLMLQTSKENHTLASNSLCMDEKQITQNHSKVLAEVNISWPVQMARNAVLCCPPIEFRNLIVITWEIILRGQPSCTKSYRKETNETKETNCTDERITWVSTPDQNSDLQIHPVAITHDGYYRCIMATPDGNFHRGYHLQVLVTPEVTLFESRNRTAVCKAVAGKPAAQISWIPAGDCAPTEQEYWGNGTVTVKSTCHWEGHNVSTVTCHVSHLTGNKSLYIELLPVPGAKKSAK
Experimental: as §3

[9] = molecular target: T5, mouse CD200R1 protein (R&D systems, 2554-CD) (mouse, UniProt Q9ES57 26-238, limits assumed); experiment: ELISA on coated mouse CD200R1
T5 construct: Bought; construct not described
T5 sequence (looked up): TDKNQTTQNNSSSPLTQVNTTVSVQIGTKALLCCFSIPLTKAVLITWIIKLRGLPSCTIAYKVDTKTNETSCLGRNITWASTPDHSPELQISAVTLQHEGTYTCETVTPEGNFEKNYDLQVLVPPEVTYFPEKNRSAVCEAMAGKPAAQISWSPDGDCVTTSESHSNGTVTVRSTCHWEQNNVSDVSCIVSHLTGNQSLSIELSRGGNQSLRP

[10] = molecular target: T2, human CD200R1 recombinant protein …; experiment: hybridoma ELISA on human CD200R1
Hybrid CD200R1 MH [11] = molecular target: T6, Hybrid CD200R1 MH (mouse;human, UniProt Q9ES57;Q8TD46); experiment: ELISA, plate-bound MH hybrid (1 ug/mL), antibody 0.0192-300 nM, O.D 450 nm; panel 'P001 MH domain-4)'
T6 construct: single domain; mouse D1 over human D2; also called MH hybrid domain; P001 MH domain
T6 sequence (hybrid extracellular part, looked up): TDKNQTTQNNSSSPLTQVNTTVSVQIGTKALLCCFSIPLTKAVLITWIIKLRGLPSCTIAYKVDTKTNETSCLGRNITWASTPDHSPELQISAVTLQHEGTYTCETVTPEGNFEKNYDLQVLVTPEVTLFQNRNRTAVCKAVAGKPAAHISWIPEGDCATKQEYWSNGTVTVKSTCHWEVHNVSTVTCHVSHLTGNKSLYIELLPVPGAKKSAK
Experimental: (§4) Recombinant proteins were produced from the extracellular Ig-like V-type domain and Ig-like C2-type domain of human CD200R1, each designed as human-mouse (HM hybrid domain) and mouse-human (MH hybrid domain) recombinant proteins. A 96-well plate was coated at a concentration of 1 μg/mL with each protein at 4° C. for 16 hours and blocked with 3% skim milk. […] After color development with TMB substrate solution (Thermo Scientific, 34029, 1-Step™ Ultra TMB-ELISA Substrate Solution), the color reaction was stopped with a stop solution (Invitrogen, SS04, ELISA Stop Solution), and the absorbance was measured at an O.D. of 450 nm.

Hybrid CD200R1 MH [12] = molecular target: T6, Hybrid CD200R1 MH; experiment: ELISA, plate-bound MH hybrid (1 ug/mL), antibody 0.0192-300 nM, O.D 450 nm; panel 'P001 MH domain-1)'
Experimental: as §4

[13] = molecular target: T7, human CD200RLa (Sino Biological, 11620-H08H) recombinant protein (human, UniProt Q6Q8B3 24-239); experiment: ELISA, plate-bound human CD200RLa (2 ug/mL), antibody 0.0192-300 nM, O.D 450 nm; panel 'recombinant human CD200RLa'
T7 construct: Bought; construct not described
T7 sequence (looked up): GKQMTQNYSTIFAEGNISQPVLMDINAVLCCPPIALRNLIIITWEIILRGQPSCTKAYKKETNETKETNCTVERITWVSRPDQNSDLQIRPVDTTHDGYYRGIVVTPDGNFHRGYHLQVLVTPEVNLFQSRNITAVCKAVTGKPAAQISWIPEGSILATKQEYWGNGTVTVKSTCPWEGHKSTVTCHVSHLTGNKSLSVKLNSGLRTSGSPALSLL
How it was run: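 Plates coated overnight (16 h, 4° C) with human or cynomolgus CD200RLa recombinant protein, blocked with 3% skim milk; bound antibody detected by TMB colour development, reaction stopped before reading.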

Kd [8]: 0.264 nM
koff [8]: 0.00138 s⁻¹
kon [8]: 5.23e+06 M⁻¹ s⁻¹
B1: P001009v1 (antibody, V domains shown)
VH: EVQLLESGGGLVQPGGSLRLSCAASGFTFSSYDMSWVRQAPGKGLEWVSWISHGGGSIYYADSVKGRFTISRDNSKNTLYLQMNSLRAEDTAVYYCARDAPAYSAPLFDYWGQGTLVTVSS
VL: QSVLTQPPSASGTPGQRVTISCSGSSSNIGNNAVNWYQQLPGTAPKLLIYYDKNRPSGVPDRFSGSKSGTSASLAISGLRSEDEADYYCAAWDDRLSGYVFGGGTKLTVL
notes: P001009 with LC S52K and S94R (Kabat); also called P019001v1; P0001009v1
IC50 (nM) of IL-6 inhibition, LPS-treated U937-CD200R1 cells [1]: 0.1 nM
IC50 (nM) of TNF-α inhibition, LPS-treated U937-CD200R1 cells [1]: 0.18 nM
EC50 (nM), degree of signal transduction by the Dok2 protein [2]: 1.28 nM
EC50 [3]: 0.16 nM
EC50 [4]: 0.3 nM
EC50 [5]: 0.17 nM
EC50 (read off the curve) [6]: ~3 nM
Kd [7]: 0.021 nM
koff [7]: 0.0001 s⁻¹
kon [7]: 4.77e+06 M⁻¹ s⁻¹

binding result [13]: no binding (tested: 300 nM)
B4: P001001 (IgG) (antibody, V domains shown)
VH: EVQLLESGGGLVQPGGSLRLSCAASGFTFSSYDMHWVRQAPGKGLEWVSRISFTGSTSYNPSLKSRFTISRDNSKNTLYLQMNSLRAEDTAVYYCARDTWWEGYFDLWGQGTLVTVSS
VL: QSVLTQPPSASGTPGQRVTISCSGSSSNIGNNHVSWYQQLPGTAPKLLIYDDTDRLTSVPNRFSGSKSGTSASLAISGLRSEDEADYYCGTWDSSLSAYVFGGGTKLTVL
binding result [9]: no binding (tested: 300 nM (highest concentration tested))
binding result (Hybrid CD200R1 MH [12]): no binding (tested: 300 nM)

Further lines, the binder ahead of its results:

B2: P001016 (IgG) (antibody, V domains shown)
VH: EVQLLESGGGLVQPGGSLRLSCAASGFTFSGYDMSWVRQAPGKGLEWVSGISYDGGSKYYADSVKGRFTISRDNSKNTLYLQMNSLRAEDTAVYYCAKDGYPLGAYYFDYWGQGTLVTVSS
VL: QSVLTQPPSASGTPGQRVTISCSVSSSNIGSNYVSWYRQLPGTAPKLLIYDDSKRPSGVPDRFSGSKSGTSASLAISGLRSEDEADYYCGTWDASLNGYVFGGGTKLTVL
binding result [9]: no binding (tested: 300 nM (highest concentration tested))

B3: 6A10 (hybridoma clone) (antibody, V domains shown)
VH: QLQQSGAELVRSGASVKLSCTASGFNIKDYYLHWIKQRPEQGLEWIGWIDPENGDTEYAPKFQGKATMTADTSSNTAYLQLISLTSEDAAVYYCFAGGSYWGQGTSVTVSS
VL: DIVMTQSPSSLSVSAGEKVTMSCKSSQSLLNSGNQKNYLAWYQQKPGQPPKLLIYGASTRESGVPDRFTGSGSGTDFTLTISSVQAEDLAVYYCQNDHSYPYTFGGGTKLEIK
ELISA O.D. [10]: ≥ 1.5 O.D.
binding result (Hybrid CD200R1 MH [11]): no binding (tested: 300 nM)
